Six molecules from patent US12679878B2, “CRF2 receptor agonists and their use in therapy” (SANOFI, priority 2020, dated 2026) can be followed below.

Starred links: 1 amine or outer side, 2 acyl side, 3 side chain; linkers in the order of their positions; H or OH if unused. Non-standard residues stand in square brackets, D forms with d. Groups on a side chain read outwards from the residue. No end group written: not given here. *: point of attachment. C18 diacid = O=C(O)CCCCCCCCCCCCCCCCC(=O)*; γGlu = O=C(O)[C@H](CCC(=O)[*:2])N[*:1]; Palmitoyl = CCCCCCCCCCCCCCCC(=O)*; AEEA = NCCOCCOCC(=O)O; Aib = CC(C)(N)C(=O)O

This experiment addresses human corticotropin-releasing factor 2α (CRF2 α receptor) (human), Q13324. In words: cell-based or functional assay.

Sequence of human corticotropin-releasing factor 2α (CRF2 α receptor) (human), Q13324 (Q13324 20-411): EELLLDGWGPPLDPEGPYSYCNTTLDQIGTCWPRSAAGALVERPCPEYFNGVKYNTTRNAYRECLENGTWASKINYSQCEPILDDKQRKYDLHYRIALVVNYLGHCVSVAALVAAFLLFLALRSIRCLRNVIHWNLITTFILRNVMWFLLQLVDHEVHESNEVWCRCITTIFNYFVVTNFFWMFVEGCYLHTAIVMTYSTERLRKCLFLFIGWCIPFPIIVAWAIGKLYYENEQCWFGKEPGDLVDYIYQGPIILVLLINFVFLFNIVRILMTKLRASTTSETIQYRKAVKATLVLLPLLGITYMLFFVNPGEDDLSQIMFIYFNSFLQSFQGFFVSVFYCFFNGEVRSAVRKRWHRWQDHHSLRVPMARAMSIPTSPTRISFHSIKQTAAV

B1: SEQ ID NO: 166 (peptide)
peptide: Ac-IVLSLD[dV]PIKLK([AEEA-AEEA-γGlu-C18 diacid])QILLEQERQK[Aib]QREQAEKNEQILEQV-NH2
SMILES: CC[C@H](C)[C@H](NC(C)=O)C(=O)N[C@H](C(=O)N[C@@H](CC(C)C)C(=O)N[C@@H](CO)C(=O)N[C@@H](CC(C)C)C(=O)N[C@@H](CC(=O)O)C(=O)N[C@@H](C(=O)N1CCC[C@H]1C(=O)N[C@H](C(=O)N[C@@H](CCCCN)C(=O)N[C@@H](CC(C)C)C(=O)N[C@@H](CCCCNC(=O)COCCOCCNC(=O)COCCOCCNC(=O)CC[C@H](NC(=O)CCCCCCCCCCCCCCCCC(=O)O)C(=O)O)C(=O)N[C@@H](CCC(N)=O)C(=O)N[C@H](C(=O)N[C@@H](CC(C)C)C(=O)N[C@@H](CC(C)C)C(=O)N[C@@H](CCC(=O)O)C(=O)N[C@@H](CCC(N)=O)C(=O)N[C@@H](CCC(=O)O)C(=O)N[C@@H](CCCNC(=N)N)C(=O)N[C@@H](CCC(N)=O)C(=O)N[C@@H](CCCCN)C(=O)NC(C)(C)C(=O)N[C@@H](CCC(N)=O)C(=O)N[C@@H](CCCNC(=N)N)C(=O)N[C@@H](CCC(=O)O)C(=O)N[C@@H](CCC(N)=O)C(=O)N[C@@H](C)C(=O)N[C@@H](CCC(=O)O)C(=O)N[C@@H](CCCCN)C(=O)N[C@@H](CC(N)=O)C(=O)N[C@@H](CCC(=O)O)C(=O)N[C@@H](CCC(N)=O)C(=O)N[C@H](C(=O)N[C@@H](CC(C)C)C(=O)N[C@@H](CCC(=O)O)C(=O)N[C@@H](CCC(N)=O)C(=O)N[C@H](C(N)=O)C(C)C)[C@@H](C)CC)[C@@H](C)CC)[C@@H](C)CC)C(C)C)C(C)C
B1 yielded an EC50 [nM], 0% HSA of 0.9 nM and an EC50 [nM], 0.1% HSA of 14 nM.

B2: SEQ ID NO: 165 (peptide)
peptide: Ac-IVLSLD[dV]PIKLK([AEEA-AEEA-γGlu-C18 diacid])QILLEQARQK[Aib]QREQAEKNEQILEQV-NH2
SMILES: CC[C@H](C)[C@H](NC(C)=O)C(=O)N[C@H](C(=O)N[C@@H](CC(C)C)C(=O)N[C@@H](CO)C(=O)N[C@@H](CC(C)C)C(=O)N[C@@H](CC(=O)O)C(=O)N[C@@H](C(=O)N1CCC[C@H]1C(=O)N[C@H](C(=O)N[C@@H](CCCCN)C(=O)N[C@@H](CC(C)C)C(=O)N[C@@H](CCCCNC(=O)COCCOCCNC(=O)COCCOCCNC(=O)CC[C@H](NC(=O)CCCCCCCCCCCCCCCCC(=O)O)C(=O)O)C(=O)N[C@@H](CCC(N)=O)C(=O)N[C@H](C(=O)N[C@@H](CC(C)C)C(=O)N[C@@H](CC(C)C)C(=O)N[C@@H](CCC(=O)O)C(=O)N[C@@H](CCC(N)=O)C(=O)N[C@@H](C)C(=O)N[C@@H](CCCNC(=N)N)C(=O)N[C@@H](CCC(N)=O)C(=O)N[C@@H](CCCCN)C(=O)NC(C)(C)C(=O)N[C@@H](CCC(N)=O)C(=O)N[C@@H](CCCNC(=N)N)C(=O)N[C@@H](CCC(=O)O)C(=O)N[C@@H](CCC(N)=O)C(=O)N[C@@H](C)C(=O)N[C@@H](CCC(=O)O)C(=O)N[C@@H](CCCCN)C(=O)N[C@@H](CC(N)=O)C(=O)N[C@@H](CCC(=O)O)C(=O)N[C@@H](CCC(N)=O)C(=O)N[C@H](C(=O)N[C@@H](CC(C)C)C(=O)N[C@@H](CCC(=O)O)C(=O)N[C@@H](CCC(N)=O)C(=O)N[C@H](C(N)=O)C(C)C)[C@@H](C)CC)[C@@H](C)CC)[C@@H](C)CC)C(C)C)C(C)C
Turning to B2, the EC50 [nM], 0% HSA was found to be 0.28 nM and the EC50 [nM], 0.1% HSA came to 5.06 nM.

B3: SEQ ID NO: 168 (peptide)
peptide: Ac-IVLSLD[dV]PIELK([AEEA-AEEA-γGlu-C18 diacid])QILLEQERQK[Aib]QREQAEKNEQILEQV-NH2
SMILES: CC[C@H](C)[C@H](NC(C)=O)C(=O)N[C@H](C(=O)N[C@@H](CC(C)C)C(=O)N[C@@H](CO)C(=O)N[C@@H](CC(C)C)C(=O)N[C@@H](CC(=O)O)C(=O)N[C@@H](C(=O)N1CCC[C@H]1C(=O)N[C@H](C(=O)N[C@@H](CCC(=O)O)C(=O)N[C@@H](CC(C)C)C(=O)N[C@@H](CCCCNC(=O)COCCOCCNC(=O)COCCOCCNC(=O)CC[C@H](NC(=O)CCCCCCCCCCCCCCCCC(=O)O)C(=O)O)C(=O)N[C@@H](CCC(N)=O)C(=O)N[C@H](C(=O)N[C@@H](CC(C)C)C(=O)N[C@@H](CC(C)C)C(=O)N[C@@H](CCC(=O)O)C(=O)N[C@@H](CCC(N)=O)C(=O)N[C@@H](CCC(=O)O)C(=O)N[C@@H](CCCNC(=N)N)C(=O)N[C@@H](CCC(N)=O)C(=O)N[C@@H](CCCCN)C(=O)NC(C)(C)C(=O)N[C@@H](CCC(N)=O)C(=O)N[C@@H](CCCNC(=N)N)C(=O)N[C@@H](CCC(=O)O)C(=O)N[C@@H](CCC(N)=O)C(=O)N[C@@H](C)C(=O)N[C@@H](CCC(=O)O)C(=O)N[C@@H](CCCCN)C(=O)N[C@@H](CC(N)=O)C(=O)N[C@@H](CCC(=O)O)C(=O)N[C@@H](CCC(N)=O)C(=O)N[C@H](C(=O)N[C@@H](CC(C)C)C(=O)N[C@@H](CCC(=O)O)C(=O)N[C@@H](CCC(N)=O)C(=O)N[C@H](C(N)=O)C(C)C)[C@@H](C)CC)[C@@H](C)CC)[C@@H](C)CC)C(C)C)C(C)C
B3 gave an EC50 [nM], 0% HSA of 13.9 nM.

B4: SEQ ID NO: 19 (peptide)
peptide: IVLSLD[dV]PTKLK([γGlu-Palmitoyl])QKLLKQERQR[Aib]EREQAEKNKRILERV-NH2
modifications: N-terminus assumed
SMILES: CCCCCCCCCCCCCCCC(=O)N[C@@H](CCC(=O)NCCCC[C@H](NC(=O)[C@H](CC(C)C)NC(=O)[C@H](CCCCN)NC(=O)[C@@H](NC(=O)[C@@H]1CCCN1C(=O)[C@H](NC(=O)[C@H](CC(=O)O)NC(=O)[C@H](CC(C)C)NC(=O)[C@H](CO)NC(=O)[C@H](CC(C)C)NC(=O)[C@@H](NC(=O)[C@@H](N)[C@@H](C)CC)C(C)C)C(C)C)[C@@H](C)O)C(=O)N[C@@H](CCC(N)=O)C(=O)N[C@@H](CCCCN)C(=O)N[C@@H](CC(C)C)C(=O)N[C@@H](CC(C)C)C(=O)N[C@@H](CCCCN)C(=O)N[C@@H](CCC(N)=O)C(=O)N[C@@H](CCC(=O)O)C(=O)N[C@@H](CCCNC(=N)N)C(=O)N[C@@H](CCC(N)=O)C(=O)N[C@@H](CCCNC(=N)N)C(=O)NC(C)(C)C(=O)N[C@@H](CCC(=O)O)C(=O)N[C@@H](CCCNC(=N)N)C(=O)N[C@@H](CCC(=O)O)C(=O)N[C@@H](CCC(N)=O)C(=O)N[C@@H](C)C(=O)N[C@@H](CCC(=O)O)C(=O)N[C@@H](CCCCN)C(=O)N[C@@H](CC(N)=O)C(=O)N[C@@H](CCCCN)C(=O)N[C@@H](CCCNC(=N)N)C(=O)N[C@H](C(=O)N[C@@H](CC(C)C)C(=O)N[C@@H](CCC(=O)O)C(=O)N[C@@H](CCCNC(=N)N)C(=O)N[C@H](C(N)=O)C(C)C)[C@@H](C)CC)C(=O)O
In the case of B4, the EC50 [nM], 0% HSA stood at 0.01 nM.

B5: SEQ ID NO: 167 (peptide)
peptide: Ac-IVLSLD[dV]PIGLK([AEEA-AEEA-γGlu-C18 diacid])QILLEQERQK[Aib]QREQAEKNEQILEQV-NH2
SMILES: CC[C@H](C)[C@H](NC(C)=O)C(=O)N[C@H](C(=O)N[C@@H](CC(C)C)C(=O)N[C@@H](CO)C(=O)N[C@@H](CC(C)C)C(=O)N[C@@H](CC(=O)O)C(=O)N[C@@H](C(=O)N1CCC[C@H]1C(=O)N[C@H](C(=O)NCC(=O)N[C@@H](CC(C)C)C(=O)N[C@@H](CCCCNC(=O)COCCOCCNC(=O)COCCOCCNC(=O)CC[C@H](NC(=O)CCCCCCCCCCCCCCCCC(=O)O)C(=O)O)C(=O)N[C@@H](CCC(N)=O)C(=O)N[C@H](C(=O)N[C@@H](CC(C)C)C(=O)N[C@@H](CC(C)C)C(=O)N[C@@H](CCC(=O)O)C(=O)N[C@@H](CCC(N)=O)C(=O)N[C@@H](CCC(=O)O)C(=O)N[C@@H](CCCNC(=N)N)C(=O)N[C@@H](CCC(N)=O)C(=O)N[C@@H](CCCCN)C(=O)NC(C)(C)C(=O)N[C@@H](CCC(N)=O)C(=O)N[C@@H](CCCNC(=N)N)C(=O)N[C@@H](CCC(=O)O)C(=O)N[C@@H](CCC(N)=O)C(=O)N[C@@H](C)C(=O)N[C@@H](CCC(=O)O)C(=O)N[C@@H](CCCCN)C(=O)N[C@@H](CC(N)=O)C(=O)N[C@@H](CCC(=O)O)C(=O)N[C@@H](CCC(N)=O)C(=O)N[C@H](C(=O)N[C@@H](CC(C)C)C(=O)N[C@@H](CCC(=O)O)C(=O)N[C@@H](CCC(N)=O)C(=O)N[C@H](C(N)=O)C(C)C)[C@@H](C)CC)[C@@H](C)CC)[C@@H](C)CC)C(C)C)C(C)C
As for B5, the EC50 [nM], 0% HSA was 3.95 nM and the EC50 [nM], 0.1% HSA came out at 74.4 nM.

B6: SEQ ID NO: 169 (peptide)
peptide: Ac-IVLSLD[dV]PIKLK([AEEA-AEEA-γGlu-C18 diacid])QILLEQERQE[Aib]QREQAEKNEQILEQV-NH2
SMILES: CC[C@H](C)[C@H](NC(C)=O)C(=O)N[C@H](C(=O)N[C@@H](CC(C)C)C(=O)N[C@@H](CO)C(=O)N[C@@H](CC(C)C)C(=O)N[C@@H](CC(=O)O)C(=O)N[C@@H](C(=O)N1CCC[C@H]1C(=O)N[C@H](C(=O)N[C@@H](CCCCN)C(=O)N[C@@H](CC(C)C)C(=O)N[C@@H](CCCCNC(=O)COCCOCCNC(=O)COCCOCCNC(=O)CC[C@H](NC(=O)CCCCCCCCCCCCCCCCC(=O)O)C(=O)O)C(=O)N[C@@H](CCC(N)=O)C(=O)N[C@H](C(=O)N[C@@H](CC(C)C)C(=O)N[C@@H](CC(C)C)C(=O)N[C@@H](CCC(=O)O)C(=O)N[C@@H](CCC(N)=O)C(=O)N[C@@H](CCC(=O)O)C(=O)N[C@@H](CCCNC(=N)N)C(=O)N[C@@H](CCC(N)=O)C(=O)N[C@@H](CCC(=O)O)C(=O)NC(C)(C)C(=O)N[C@@H](CCC(N)=O)C(=O)N[C@@H](CCCNC(=N)N)C(=O)N[C@@H](CCC(=O)O)C(=O)N[C@@H](CCC(N)=O)C(=O)N[C@@H](C)C(=O)N[C@@H](CCC(=O)O)C(=O)N[C@@H](CCCCN)C(=O)N[C@@H](CC(N)=O)C(=O)N[C@@H](CCC(=O)O)C(=O)N[C@@H](CCC(N)=O)C(=O)N[C@H](C(=O)N[C@@H](CC(C)C)C(=O)N[C@@H](CCC(=O)O)C(=O)N[C@@H](CCC(N)=O)C(=O)N[C@H](C(N)=O)C(C)C)[C@@H](C)CC)[C@@H](C)CC)[C@@H](C)CC)C(C)C)C(C)C
Regarding B6, the EC50 [nM], 0% HSA turned out to be 4.01 nM and the EC50 [nM], 0.1% HSA was 98.1 nM.
